Results published in article PMC3702667.

Experiments:
[1] = target: RECQL5 KIX domain (RECQL5_(515–620)) (human) (UniProt O94762); experiment: SAXS
[2] = target: RECQL5 KIX domain (RECQL5_(515–620)) (human) (UniProt O94762); experiment: crystal structure
[3] = target: Fluorescently labeled RECQL5_(1–620) (human) (UniProt O94762); experiment: native gel or EMSA
Sequence of Fluorescently labeled RECQL5_(1–620) (human) (O94762 1-620): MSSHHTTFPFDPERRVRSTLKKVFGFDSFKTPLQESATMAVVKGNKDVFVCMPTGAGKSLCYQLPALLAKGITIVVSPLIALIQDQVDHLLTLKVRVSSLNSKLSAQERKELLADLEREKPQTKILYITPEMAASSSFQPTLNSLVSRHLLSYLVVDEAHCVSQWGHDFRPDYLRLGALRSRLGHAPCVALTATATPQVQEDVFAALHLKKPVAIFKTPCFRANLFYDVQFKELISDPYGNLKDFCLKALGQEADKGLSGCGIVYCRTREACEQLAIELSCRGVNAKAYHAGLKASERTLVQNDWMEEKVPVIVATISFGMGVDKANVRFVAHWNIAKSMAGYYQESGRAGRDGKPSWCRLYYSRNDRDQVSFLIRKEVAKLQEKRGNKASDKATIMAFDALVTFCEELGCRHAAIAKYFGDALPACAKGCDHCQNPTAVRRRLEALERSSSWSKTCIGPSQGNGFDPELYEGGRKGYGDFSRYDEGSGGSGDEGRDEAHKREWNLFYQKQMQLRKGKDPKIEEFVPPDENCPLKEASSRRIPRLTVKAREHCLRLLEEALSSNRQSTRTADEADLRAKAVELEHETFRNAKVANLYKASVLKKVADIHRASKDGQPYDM

Row | stoichiometry N [1] | stoichiometry N [2] | Kd [3] [nM] | Substance
1 | 2 | 2 |  | RECQL5 KIX domain (RECQL5_(515–620)) (from UniProt O94762 515-620) (domain or fragment)
2 |  |  | 40 | human RNA polymerase II (from UniProt P24928;P30876) (complex)
